According to the supplement of paper PMC12042874:
± gives the uncertainty stated by the source.

Test: amyloid nucleation score (Sup35N fusion, yeast selection) (log enrichment); library NNK3; higher = more nucleation; inactive = no reads after selection
How it was run: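 Yeast lacking psi expressed peptides of 20 random codons fused to Sup35N, received 100 μM copper sulfate for 24 hours, and were then grown for 7 days at 30°C on medium lacking adenine and uracil. Illumina sequencing of input and output plasmid inserts provided the reads. Nucleation scores are DiMSum log enrichments of output over input, centred on the mode of non-aggregating sequences. Any sequence with under 100 input reads was excluded.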

Substance	amyloid nucleation score
HYRYGKHREKMLMSAIVWLS	inactive
HYWEVYLGTCLRAQDVQER	1.57 ± 0.097
HYWVLSFLNETALIIEFWH	inactive
HYYVSTDLWSIMMYTILRPC	inactive
IAAIGLELYWFFIVSIWGY	inactive
IAARW	inactive
IADCVLIN	inactive
IAFTNLVKVCGLTGYA	inactive
IAGMCGRGWREPLVERSGKD	inactive
IAHVMYNYQHVTSCNMSSVL	0.726 ± 0.13
IALSGRYRDSAACRDSCHVA	inactive
IAVDFRYCYDYGSNSSCRLA	1.88 ± 0.11
ICDSDFRY	inactive
ICEQKEFPYVEQWLD	inactive
ICGIDSLN	inactive
ICIFVFFRYWHVVHVT	inactive
ICINVESIKPMRWQAMI	inactive
ICKNYSVLVLRFGGSEGPTV	1.52 ± 0.1
ICNSY	inactive
ICPTWELNIRP	inactive
ICRQS	inactive
ICSSFDGQ	0.458 ± 0.2
ICSVVIEGVFLRRLWDSRVS	inactive

Substance	amyloid nucleation score
ICWLVMEVLG	inactive
ICYTALGCYISSQFSGWGRM	1.12 ± 0.088
IDCCWSCV	0.16 ± 0.34
IDFRFFQPQAVCGNLSCYRE	0.227 ± 0.23
IDIVCAF	inactive
IDLKGLGLYSTSEVWARQQK	inactive
IDLSAMFFAFFVIFVFVWIW	inactive
IDLTTDSLDM	inactive
IDNMAVIYWTVNFVCRVW	1.26 ± 0.085
IDRFHYSLTTDT	inactive
IDSAEASCIGCLVRQCADPI	inactive
IDSNGYVLLVRDGREKVVRC	0.204 ± 0.29
IDVTQERRVGDSTCALGTH	-0.168 ± 0.73
IEDQHLHVVLTGWGSKLSGH	inactive
IEIFEFFSRSSNRSQPGAPL	inactive
IELVFAHVYCGMRWNSEASR	1.4 ± 0.084
IERCVFAFCYCSLGQSAKSF	1.49 ± 0.14
IERSDSVSWRGVLVGIEMKV	inactive
IESKLDAYTLCVGSSNWLWM	inactive
IEVQFENFSCSR	inactive
IEYRKITKLIKLGISGVERS	-0.978 ± 1.3
IFFAMISCTYLLDCVDRNWG	inactive
IFIYGPLPPVRCYHYDWWNL	inactive

Substance	amyloid nucleation score
IFLFSSRCALDNIVEPWFFW	inactive
IFMITDQ	inactive
IFNALCYTWESRFLRTEVVS	inactive
IFNGRDNLQLDVWLGGYFLV	inactive
IFQKIECLTGMGIVGCSTSM	inactive
IFSNRGFQLCWFSYMLSVHT	inactive
IFWHQRRLMTCCNKYTFGYG	inactive
IGFAD	inactive
IGGVAGQRGSIA	inactive
IGKFPDRCTFVQTKYFYVRS	1.48 ± 0.075
IGKRIFKLCVMYGYYLHLNF	inactive
IGKVLDAFGE	inactive
IGMTRGMGLVVFYSRYMWDD	inactive
IGRISMAIMWIGVGVA	inactive
IGSAISGNYYTINNCDFDTS	inactive
IGSAVIWVFFCNGSGVGDGT	2.08 ± 0.09
IGSYIKEGCAITMSRPLFKG	inactive
IGTTEQ	inactive
IGWGVQFELFGTWRVEIPLV	inactive
IGWKEVSA	-0.006 ± 0.35
IGYGGSIPRHSTCDVSLQRW	inactive
IHIFTLKYKVRARKLATTIS	inactive
IHKLHYIYGGLMSTWLLEDT	inactive

Substance	amyloid nucleation score
IHMPHLGIGSKKRVSVRGDA	inactive
IHWGRAGATEAAST	inactive
IICIYKIPKFTTRKLILRVY	inactive
IIIRGSSVLVVRLNDEGYVL	0.216 ± 0.63
IIKDLPVCVDERASYAEVMS	inactive
IILFKCWCKWEASGSATIVD	inactive
IIMRDYTAMCI	inactive
IIMSQMVYIVRDIHFVCWVI	inactive
IIPRIALPVCFVPYGLRRSS	inactive
IIRALARFLVNVGV	inactive
IISDQEFSYETCDFSYFCKG	inactive
IISQAQFSVAYLLCWRQCYV	1.2 ± 0.082
IISVIVTVYR	inactive
IIVFLRLSPELCVMCVRR	inactive
IIVMDCNGKLNGINHWVRVD	inactive
IKCIPFCDVGWSLTVLRYVT	inactive
IKSCGVNNIAFLQVCHRWCS	1.6 ± 0.082
IKSHVAIDSVPER	inactive
IKWVCTEVRSGCLSVDCVLV	inactive
ILAVAPVVPGVVLGRNCRAR	inactive
ILCVFVYRSRAESYEL	0.446 ± 0.23
ILFKLVKWSAMSFLRCRLFS	-0.797 ± 1.4
ILFLSLRSYSLNGFSDIMYY	inactive

Substance	amyloid nucleation score
ILIDSGSTLFSIIFQGLLLI	inactive
ILIGWMILWAICLPKLVDDG	inactive
ILIYVQML	0.521 ± 0.22
ILKMFTSGYCRVLWDLVVMV	inactive
ILMRTGFILCATST	inactive
ILPGRHCGGASMHTQTCQ	inactive
ILQCGS	inactive
ILSVYDFNWFWKAKRDLYIS	inactive
ILTYINEMSHLPWV	inactive
ILVFILYHCCIIHLGLNLAK	inactive
ILVKIRNRCLEVE	-0.32 ± 1.1
ILVTLMVYIPHEYISVINLL	inactive
ILVWNLYLT	2.54 ± 0.053
ILYVLCIFLCGAAIFSLTVL	inactive
IMEEFVTIFDYLQMAMFTRR	inactive
IMFSVRRLKSILSRVAWYNT	inactive
IMGYGWDCTSDGLCVTCFYS	inactive
IMHIYYTYSIPLCDRRGRSY	0.856 ± 0.26
IMSNTLIHYLHRMLSSALCY	inactive
IMVKVW	inactive
INHFLFYANNRYRRHILVGC	inactive
INICLLLKQRHEWMCCKNCM	2.85 ± 0.074
INLFICMCEKGYPHDSWVCC	2.58 ± 0.083

Substance	amyloid nucleation score
INNTAPPQTYPR	inactive
INRVHLYRLLKW	inactive
INSEWIQSSAMFHPIMGRFR	-0.188 ± 1.5
INWGWLPCTRTSTIGSRGRS	inactive
IPRYVWNVPRWYVYQFVCGA	0.27 ± 0.54
IPTSLCGGAQLGRTRVLFLW	inactive
IQCYNLSLPAGGEKLVRKRV	inactive
IQLICEAIAGFLYNVIFVVL	inactive
IQTSNTHVVLVFFGRILRIC	inactive
IQWFRQCSFRCSNHYSSAFK	1.44 ± 0.14
IRAEGQKIYDLPSFCVLIPR	inactive
IRCMRGTTRHVSGLKRVERN	inactive
IRESFINGVYMVVSEFKCFT	inactive
IRFAAMFFALLLRRDESSYE	inactive
IRFYQKCVLSACVTSTRIMV	inactive
IRIKVRLHVSIYFNIFR	inactive
IRPSLLMSLQNNDMMADLEV	-0.538 ± 0.55
IRRLQINRAKHAILLLHYNW	inactive
IRRWPWYIMCYVLLQSFLSL	inactive
IRSDG	inactive
IRSIEPYPMHTTSW	-0.428 ± 1.1
IRSLLLILVRSAVPSALSVN	inactive
IRSTGLINFQYWKMKTFLII	inactive

Substance	amyloid nucleation score
IRSVL	inactive
IRSVVIRVSFYFTWF	inactive
IRTNYRRGKEAGVSGADSCS	inactive
IRTQYQEREASILYM	inactive
IRVLVCIFWKTCPPNYVCRI	inactive
IRYALTINYSNTVL	0.457 ± 0.24
ISCLDGCFS	inactive
ISESKLMLTRWDGVFVTIWD	inactive
ISFYKGYLKFNL	inactive
ISGLSNMAYFLVNAWKLM	inactive
ISIFRRTGFAWFWENV	inactive
ISIFSIRNMVYNLQVRLVLE	inactive
ISILEVKMWLLWTELERTIT	inactive
ISKAVSWCASCRSTQV	inactive
ISNLRSVVLWNSRLQRNRGW	inactive
ISRAVRILVVFDEVWMCSDG	inactive
ISRGALYLGMTATMRVQSGF	inactive
ISRSVIIDSQRGLCCQTWDW	inactive
ISSIYREYLLKHGMFRKRRK	inactive
